Data taken from patent US7785631B2, “Solid dose delivery vehicle and methods of making same” (Quadrant Drug Delivery Limited, priority 1994, dated 2010).

Assays:
Assay type in all cases: physicochemical
[1] = Storage of phycoerythrin dried in trehalose at 100° C.; details: stored at 100° C. for one month
Description: A 400 μg/ml phycoerythrin solution was freeze-dried in the FTS drier with or without 20% trehalose.

[2] = Exposure of dried phycoerythrin powder to organic solvents, fluorescence; details: freeze-dried powder
Description: A 400 μg/ml phycoerythrin solution was freeze-dried in a Labconco freeze-drier with or without 20% trehalose. The dried protein powder was exposed to a number of organic solvents for 72 hrs.

[3] = Horseradish peroxidase activity after drying and acetone exposure; details: dried with 50% trehalose versus dried without trehalose; FIG. 6A
Description: (§1) A 0.1 mg/ml horseradish peroxidase solution or a 1 mg/ml alkaline phosphatase/4 mg/ml bovine serum albumin solution was dried in an FTS Systems freeze drier with or without 50% trehalose. The drier was used as a vacuum drier and the mixtures dried without freezing. Four times the volume of solvent was added and the solution was allowed to evaporate to dryness. The contents were redissolved in 5 milliliters of water, and enzyme activity was assessed, in serial dilution, by commercial ‘kit’ reagents.

[4] = Alkaline phosphatase activity after drying and acetone exposure; details: dried with 50% trehalose versus dried without trehalose; with bovine serum albumin; FIG. 6B
Description: as §1

phycoerythrin
loss of functional activity on storage [1]: no detectable loss of functional activity
fluorescence after solvent exposure ([2]; acetone, 72 hrs): remained fluorescent
fluorescence after solvent exposure ([2]; acetonitrile, 72 hrs): remained fluorescent
fluorescence after solvent exposure ([2]; chloroform, 72 hrs): remained fluorescent
fluorescence after solvent exposure ([2]; dimethylsulfoxide (powder solubilized)): remained fluorescent
fluorescence after solvent exposure ([2]; methanol, 72 hrs): remained fluorescent
time remained fluorescent ([2]; pyridine): 24 to 48 h
fluorescence after solvent exposure ([2]; pyridine, by 72 hrs): lost fluorescence

horseradish peroxidase
resistance of enzyme activity to acetone [3]: more resistant to acetone

alkaline phosphatase
resistance of enzyme activity to acetone [4]: more resistant to acetone
